The target of this assay is human granzyme B (human) (UniProt P10144). Briefly: cell-based or functional assay.
Sequence of UniProt P10144 (P10144 21-247 limits assumed): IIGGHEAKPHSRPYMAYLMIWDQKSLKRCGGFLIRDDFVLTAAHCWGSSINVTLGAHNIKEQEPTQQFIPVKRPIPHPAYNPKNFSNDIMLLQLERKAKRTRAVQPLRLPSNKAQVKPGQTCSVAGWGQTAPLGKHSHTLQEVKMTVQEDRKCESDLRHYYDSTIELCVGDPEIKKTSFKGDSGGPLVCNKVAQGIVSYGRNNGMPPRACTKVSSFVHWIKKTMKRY

“serine protease inhibitor 6 (SPI6), mouse serpin” returned an apoptosis of Jurkat cells (% of cells YOPRO-1-positive) after perforin and human granzyme B (% of cells YOPRO-1-positive) of 27.

The record behind these values is patent US20030148511A1.
